# Test results as given in PMC5640855, “ZIC2 Is Essential for Maintenance of Latency and Is a Target of an Immediate Early Protein during Kaposi's Sarcoma-Associated Herpesvirus Lytic Reactivation” (Journal of Virology, 2017).
# T1: GST-K-Rta (Kaposi's sarcoma-associated herpesvirus …, UniProt F5HCV3 1-691)
# T1 construct: also called GST-tagged K-Rta; source: recombinant baculovirus-infected Sf9 cells, purified
# T1 sequence: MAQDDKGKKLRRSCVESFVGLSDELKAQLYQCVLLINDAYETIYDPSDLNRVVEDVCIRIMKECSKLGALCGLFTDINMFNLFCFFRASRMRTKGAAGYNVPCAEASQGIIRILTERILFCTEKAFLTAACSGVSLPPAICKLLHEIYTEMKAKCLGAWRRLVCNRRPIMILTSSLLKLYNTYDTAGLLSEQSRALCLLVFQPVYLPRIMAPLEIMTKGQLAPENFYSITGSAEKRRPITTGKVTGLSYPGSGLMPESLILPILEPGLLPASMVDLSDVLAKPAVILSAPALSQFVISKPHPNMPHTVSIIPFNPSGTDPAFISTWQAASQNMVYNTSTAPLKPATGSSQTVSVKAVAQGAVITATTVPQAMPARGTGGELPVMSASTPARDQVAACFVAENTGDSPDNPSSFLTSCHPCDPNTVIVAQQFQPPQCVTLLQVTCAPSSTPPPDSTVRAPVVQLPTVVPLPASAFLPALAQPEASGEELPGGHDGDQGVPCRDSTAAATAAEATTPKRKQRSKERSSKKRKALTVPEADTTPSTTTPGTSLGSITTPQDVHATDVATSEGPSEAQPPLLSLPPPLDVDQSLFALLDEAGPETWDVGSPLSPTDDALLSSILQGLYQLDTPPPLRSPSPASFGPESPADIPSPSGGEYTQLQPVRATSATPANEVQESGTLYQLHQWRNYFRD
# B1: FLAG-tagged ZIC2 (natural protein, UniProt O95409 1-532, looked up)
# chain: MLLDAGPQFPAIGVGSFARHHHHSAAAAAAAAAEMQDRELSLAAAQNGFVDSAAAHMGAFKLNPGAHELSPGQSSAFTSQGPGAYPGSAAAAAAAAALGPHAAHVGSYSGPPFNSTRDFLFRSRGFGDSAPGGGQHGLFGPGAGGLHHAHSDAQGHLLFPGLPEQHGPHGSQNVLNGQMRLGLPGEVFGRSEQYRQVASPRTDPYSAAQLHNQYGPMNMNMGMNMAAAAAHHHHHHHHHPGAFFRYMRQQCIKQELICKWIDPEQLSNPKKSCNKTFSTMHELVTHVSVEHVGGPEQSNHVCFWEECPREGKPFKAKYKLVNHIRVHTGEKPFPCPFPGCGKVFARSENLKIHKRTHTGEKPFQCEFEGCDRRFANSSDRKKHMHVHTSDKPYLCKMCDKSYTHPSSLRKHMKVHESSPQGSESSPAASSGYESSTPPGLVSPSAEPQSSSNLSPAAAAAAAAAAAAAAAVSAVHRGGGSGSGGAGGGSGGGSGSGGGGGGAGGGGGGSSGGGSGTAGGHSGLSSNFNEWYV
# notes: ZIC2 (zinc finger protein of the cerebellum 2); cDNA cloned into pFastBac; also called FLAG-ZIC2; source: recombinant baculovirus-infected Sf9 cells, purified
# Molecular target: T1, GST-K-Rta
# Test: pull-down
# Settings: both partners purified
binder,measurement,value
B1,binding result,binds
